# What was measured:
# [1] = target: T1, recombinant Xenopus laevis CDC6 (rCDC6) (Xenopus laevis, UniProt P79946); test: isothermal titration calorimetry, one-site fit; type: binding; settings: 25 °C; PBS, 10% glycerol, 1 mM MgCl2, 1 mM DTT, 1% DMSO; CDC6 74 μM (75 μM in methods) titrated with 1 mM compound
# T1 construct: gene cdc6.S; full-length; GST fusion from pGEX-6P-1 in E. coli Rosetta (DE3); GST cleaved with HRV 3C protease; Resource S and Superdex 200 purified
# T1 sequence (P79946 1-554): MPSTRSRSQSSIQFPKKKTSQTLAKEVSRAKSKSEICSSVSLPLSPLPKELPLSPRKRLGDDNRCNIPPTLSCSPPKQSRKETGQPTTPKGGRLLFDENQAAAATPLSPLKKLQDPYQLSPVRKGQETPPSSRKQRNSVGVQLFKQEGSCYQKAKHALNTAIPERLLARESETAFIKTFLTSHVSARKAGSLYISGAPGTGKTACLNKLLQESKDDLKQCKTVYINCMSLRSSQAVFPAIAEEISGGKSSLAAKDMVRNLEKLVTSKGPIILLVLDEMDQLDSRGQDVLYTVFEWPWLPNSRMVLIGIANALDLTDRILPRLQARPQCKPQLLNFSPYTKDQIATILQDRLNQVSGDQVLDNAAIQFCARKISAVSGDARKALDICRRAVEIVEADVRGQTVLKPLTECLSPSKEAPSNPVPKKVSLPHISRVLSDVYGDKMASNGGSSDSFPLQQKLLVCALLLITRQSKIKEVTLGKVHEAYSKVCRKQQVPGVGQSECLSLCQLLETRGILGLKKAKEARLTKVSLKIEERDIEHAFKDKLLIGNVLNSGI
# [2] = test system: MCM2-7 (detected via MCM7) (Xenopus laevis); test: ELISA (MCM7) on immobilized DNA; settings: 5' biotin (BtnTg), Interphase Xenopus laevis egg extract (HSS; 2-fold diluted in ELISA), 30 min, room temperature (ELISA), wash buffer, salt and pH not given in the material
Compound,Kd [1],binding signal ([2]; + 187 uM NSC-95397 (reduction at least 40%)),binding signal ([2]; + 187 uM aminacrine (DNA intercalator; reduction at least 40%)),binding signal ([2]; + 187 uM ethacridine (DNA intercalator; reduction at least 40%))
"O=C1C(SCCO)=C(SCCO)C(=O)c2ccccc21 [NSC-95397, 2,3-bis(2-hydroxyethylsulfanyl) naphthalene-1,4-dione]",323 ± 269 nM,,,
bDNA (1.8 kb biotinylated DNA),,< 60 % of DMSO,< 60 % of DMSO,< 60 % of DMSO

# Source: publication PMC11342271, “A high-throughput screening identifies MCM chromatin loading inhibitors targeting cells with increased replication origins” (iScience, 2024)
